# Reference: article PMC9391438, “Structures of L-BC virus and its open particle provide insight into Totivirus capsid assembly” (Communications Biology, 2022)
# Biological target: the molecule itself
# Assay: cryo-EM structure; L-BC particles purified from yeast, vitrified in 20 mM Tris-HCl pH 7.5, 50 mM KCl, 10 mM MgCl2; empty particle 2.9 Å and virion 3.7 Å (icosahedral symmetry), open particle 10 Å (C5) and 12 Å (C1)
protein,measurement,value
"L-BC virus capsid protein (Saccharomyces cerevisiae virus L-BCLa) (natural protein, Capsid protein of Saccharomyces cerevisiae virus L-BCLa (L-BC), as found in virus particles from yeast; genome NC_001641.1; the model has 1316 resolved residues for the two copies (A and B) of the icosahedral asymmetric unit; The same chain takes two conformations (A and B) in the capsid; no density for it was resolved; also called A subunit; B subunit) MSSLLNSLLPEYFKPKTNLNINSSRVQYGFNARIDMQYEDDSGTRKGSRPNAFMSNTVAFIGNYEGIIVDDIPILDGLRADIFDTHGDLDMGLVEDALSKSTMIRRNVPTYTAYASELLYKRNLTSLFYNMLRLYYIKKWGSIKYEKDAIFYDNGHACLLNRQLFPKSRDASLESSLSLPEAEIAMLDPGLEFPEEDVPAILWHGRVSSRATCILGQACSEFAPLAPFSIAHYSPQLTRKLFVNAPAGIEPSSGRYTHEDVKDAITILVSANQAYTDFEAAYLMLAQTLVSPVPRTAEASAWFINAGMVNMPTLSCANGYYPALTNVNPYHRLDTWKDTLNHWVAYPDMLFYHSVAMIESCYVELGNVARVSDSDAINKYTFTELSVQGRPVMNRGIIVDLTLVAMRTGREISLPYPVSCGLTRTDALLQGTEIHVPVVVKDIDMPQYYNAIDKDVIEGQETVIKVKQLPPAMYPIYTYGINTTEFYSDHFEDQVQVEMAPIDNGKAVFNDARKFSKFMSIMRMMGNDVTATDLVTGRKVSNWADNSSGRFLYTDVKYEGQTAFLVDMDTVKARDHCWVSIVDPNGTMNLSYKMTNFRAAMFSRNKPLYMTGGSVRTIATGNYRDAAERLRAMDETLRLKPFKITEKLDFRVAAYAIPSLSGSNMPSLHHQEQLQISEVDAEPINPIGEDELPPDIE",stoichiometry N,120
